Results on 4 molecules are retold here after patent US20180111972A1 (Stanford University, published 2018).

First the molecules themselves.
B2: PDGFRβ-His (residues 1-314 of PDGFR-β with C-terminal hexahistidine tag) (receptor)
chain: LVVTPPGPELVLNVSSTFVLTCSGSAPVVWERMSQEPPQEMAKAQDGTFSSVLTLTNLTGLDTGEYFCTHNDSRGLETDERKRLYIFVPDPTVGFLPNDAEELFIFLTEITEITIPCRVTDPQLVVTLHEKKGDVALPVPYDHQRGFSGIFEDRSYICKTTIGDREVDSDAYYVYRLQVSSINVSVNAVQTVVRQGENITLMCIVIGNEVVNFEWTYPRKESGRLVEPVTDFLLDMPYHIRSILHIPSAELEDSGTYTCNVTESVNDHQDEKAINITVVESGHHHHHH
notes: range 1-314; Monovalent form, expressed in FreeStyle 293-F cells; also called PDGRβ-His; PDGFR-His
B3: scPDGF, single-chain version of wild-type PDGF-BB, soluble, FLAG and hexahistidine tags (ligand)
chain: IAEPAMIAECKTRTEVFEISRRLIDRTNANFLVWPPCVEVQRCSGCCNNRNVQCRPTQVQLRPVQVRKIEIVRKKPIFKKATVTLEDHLACKCETVAAGSTSGSGKSSEGKGIAEPAMIAECKTRTEVFEISRRLIDRTNANFLVWPPCVEVQRCSGCCNNRNVQCRPTQVQLRPVQVRKIEIVRKKPIFKKATVTLEDHLACKCETVAA

The target in assay [1] is B2. The assay can be described thus: yeast surface display titration, flow cytometry. As to the method: (§1) Cells were incubated in large enough volumes to avoid ligand depletion and appropriate time to reach equilibrium. During the last hour of incubation, yeast were incubated with 1:250 dilution of chicken anti-c-Myc (Invitrogen) in PBSA. […] Yeast were washed, pelleted, and resuspended in PBSA immediately before analysis by flow cytometry using BD FACSCalibur or BD Accuri C6. Flow cytometry data were analyzed using FlowJo (v7.6.1 and v10, Treestar) or BD Accuri C6 software. Statistical analysis was performed using GraphPad Prism 6.
On the technique in general: In flow cytometry, cells or beads pass a laser one at a time.

Another assay addresses T1, VEGFR2-Fc (R&D Systems) (human, UniProt P35968 20-764).
T1 construct: extracellular domain; Bought reagent; also called VEGFR-Fc; not shown: Fc part, detected with anti-human-IgG (Fc specific)
Briefly: yeast surface display, flow cytometry: VEGFR2-Fc bound, with and without pre-incubation with 100 nM PDGFRβ-Fc. As to the method: as §1

The target in assay [2] is B2. Briefly: yeast surface display, flow cytometry titration of PDGFRβ-His (panel 'PDGFRβ binding'). As to the method:
as §1

The target in assay [3] is T2, soluble PDGFRβ (Fc or His format not stated for the experiment) (human, UniProt P09619 33-532).
T2 construct: extracellular domain
The assay can be described thus: yeast surface display titration; table under the panel 'PDGFR binding', Fc or His form not given.

Assay [4] concerns the target T2, soluble PDGFRβ (Fc or His format not …). Briefly: yeast surface display, flow cytometry titration of soluble receptor; panel 'PDGFR binding', Fc or His form not given.
The target in assay [5] is T3, scPDGF, yeast-displayed (human).
T3 chain: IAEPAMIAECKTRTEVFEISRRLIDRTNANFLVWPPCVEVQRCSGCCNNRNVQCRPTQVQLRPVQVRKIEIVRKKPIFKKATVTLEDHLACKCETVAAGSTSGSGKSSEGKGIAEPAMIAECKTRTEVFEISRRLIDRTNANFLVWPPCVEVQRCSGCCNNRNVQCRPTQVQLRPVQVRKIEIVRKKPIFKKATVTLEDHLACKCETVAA
The assay can be described thus: yeast surface display of scPDGF, flow cytometry titration of PDGFRβ-His, anti-His detection. As to the method:
as §1
(§2) Bound protein was detected using fluorescently-labeled anti-His and anti-mouse-Fc antibodies.

Assay [6] concerns the target B2. Briefly: KinExA, equilibrium titration in solution, n-curve analysis. The procedure:
For KinExA measurements, a constant amount of PDGF/VEGF ligand is titrated with differing concentrations of PDGRβ-His or VEGFR2-His. The solutions are incubated for an appropriate amount of time to allow the ligand-receptor binding reaction to reach equilibrium. The solution is then briefly exposed to a solid support containing immobilized PDGFR or VEGFR, which captures unbound ligand. The amount of ligand bound to the solid support is then detected using a fluorescently-labeled antibody. […] For each binding interaction measured, curves for two concentrations of the constant ligand are performed. By performing two experiments with fixed ligand concentrations above and below the Kd, and fitting both sets of data with a nonlinear regression analysis, a more accurate measurement for the affinity can be obtained.
Kinetic Exclusion Assay (KinExA). All experiments were performed on a KinExA 3200 instrument with siliconized flow cell (Sapidyne Instruments Inc). […] 30 μg of receptor was incubated in 1 ml of 50 mM sodium bicarbonate, 0.5 M sodium citrate buffer, pH 8.3, for 2 hr at room temperature with rocking. Beads were allowed to settle by gravity and liquid removed. Beads were blocked by incubating in 1 ml of 10 mg/ml BSA in 1 M Tris buffer, pH 8.0, for 1 hr at room temperature with rocking, and stored in blocking buffer at 4° C. for up to one week until use. Running buffer contained PBS with 10 mM imidazole and 0.02% sodium azide. Samples were prepared in running buffer with 1 mg/ml BSA. Binding reactions were prepared with a fixed concentration of PDGF/VEGF ligands and dilution series of PDGFR or VEGFR. Captured PDGF/VEGF ligands were detected using a Dylight 649-conjugated anti-FLAG antibody (Rockland) at 1:1000 dilution in sample buffer. Kinetic experiments were performed with the “Kinetics Injection” method defined in the KinExA software. Data were analyzed with KinExA Pro Software.
(In general: A kinetic exclusion assay measures how much of one partner remains free in solution.)

For assay [7], the target named is B2. The assay can be described thus: KinExA; calculated, could not be accurately determined because of the fast equilibrium time.
Assay [8] has as its target B2. The assay can be described thus: KinExA Kinetics Injection; could not be accurately determined because of the fast equilibrium time.
Assay [9] has as its target PDGFRβ on DiscoveRx PathHunter U2OS PDGFRβ reporter cells (UniProt P09619 33-1106, limits assumed). The assay can be described thus: cell-based or functional assay.
In assay [10] the target is T3, scPDGF, yeast-displayed. Briefly: yeast surface display of scPDGF, flow cytometry titration of PDGFRβ-Fc, anti-mouse-Fc detection. As to the method: as §1, §2
The target in assay [11] is B3. The assay can be described thus: cell-based or functional assay.

In general, Kd refers to a measure of binding affinity in units of concentration. As a reminder, the EC50 (read off the curve) is the concentration that produces a half-maximal response. One may read the koff as the rate constant with which the complex falls apart. What is called kon is a measure of how fast the partners come together.

T1 sequence (P35968 20-764): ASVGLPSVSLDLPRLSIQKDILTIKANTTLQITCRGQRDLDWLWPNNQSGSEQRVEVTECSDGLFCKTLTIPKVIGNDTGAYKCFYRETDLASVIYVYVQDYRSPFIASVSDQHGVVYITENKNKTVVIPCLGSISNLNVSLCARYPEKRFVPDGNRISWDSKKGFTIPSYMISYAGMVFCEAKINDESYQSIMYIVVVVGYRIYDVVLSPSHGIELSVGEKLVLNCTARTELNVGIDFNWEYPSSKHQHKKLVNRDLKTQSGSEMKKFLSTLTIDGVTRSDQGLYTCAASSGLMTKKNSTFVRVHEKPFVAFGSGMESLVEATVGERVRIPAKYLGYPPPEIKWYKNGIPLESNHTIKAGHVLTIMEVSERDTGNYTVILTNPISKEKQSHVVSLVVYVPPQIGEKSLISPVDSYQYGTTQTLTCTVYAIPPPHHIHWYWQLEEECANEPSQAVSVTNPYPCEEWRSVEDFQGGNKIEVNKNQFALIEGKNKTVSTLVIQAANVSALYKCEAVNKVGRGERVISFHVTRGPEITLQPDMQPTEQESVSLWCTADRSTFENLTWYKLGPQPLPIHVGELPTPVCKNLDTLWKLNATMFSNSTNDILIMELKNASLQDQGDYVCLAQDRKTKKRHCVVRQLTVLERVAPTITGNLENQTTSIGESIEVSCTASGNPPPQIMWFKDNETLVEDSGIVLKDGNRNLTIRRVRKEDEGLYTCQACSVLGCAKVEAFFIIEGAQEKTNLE

B1: PVRF (PV6 with K87R and I182F), yeast-displayed (designed binder)
chain: IAEPAMIAECHPIETLVDIFQEYPDEIEYIFKPSCVPLMRCGGCCNNRNVQCRPTEESNITMQIMRIKPHQGQHIGEMSFLQHNKCRCETVAAGSTSGSGKSSEGKGEVVKFMDVYQRSYCKTRTEVFEISRRLIDRTNANFLVWPPCVEVQRCSGCCNDEGLECVPTQVQLRPVQVRKIEFVRKKPIFKKATVTLEDHLACECRPKKD
Regarding B1, the dissociation constant Kd in assay [1] came to 0.37 nM; in assay [3], 0.24 nM. Moreover, in the assay with VEGFR2-Fc (R&D Systems), the binding result is on record as “binds”. Further, the “EC50 (read off the curve)” value in assay [2] was approximately 0.3 nM; in [4] it was approximately 0.2 nM.

In the case of B2, the “EC50 (read off the curve)” value in the assay with scPDGF, yeast-displayed [5] was approximately 300 nM.

As for B3, in [6], the dissociation constant Kd came out at 18 nM. Further, the koff in assay [7] is more than 0.31 s⁻¹. This molecule yielded a kon in [8] of more than 1.7e+07 M⁻¹ s⁻¹. Moreover, the “EC50 of receptor activation, DiscoveRx PathHunter PDGFR reporter cells, chemiluminescence” value in assay [9] was found to be 0.14 nM.

B4: PDGFRβ-Fc (residues 1-314 of PDGFR-β fused to the Fc region of mouse IgG2a) (Fc fusion)
chain: LVVTPPGPELVLNVSSTFVLTCSGSAPVVWERMSQEPPQEMAKAQDGTFSSVLTLTNLTGLDTGEYFCTHNDSRGLETDERKRLYIFVPDPTVGFLPNDAEELFIFLTEITEITIPCRVTDPQLVVTLHEKKGDVALPVPYDHQRGFSGIFEDRSYICKTTIGDREVDSDAYYVYRLQVSSINVSVNAVQTVVRQGENITLMCIVIGNEVVNFEWTYPRKESGRLVEPVTDFLLDMPYHIRSILHIPSAELEDSGTYTCNVTESVNDHQDEKAINITVVESG
notes: range 1-314; Expressed in FreeStyle 293-F cells; also called PDGRβ-Fc; PDGFR-Fc; not shown: Fc region of mouse IgG2a
As for B4, in the assay with scPDGF, yeast-displayed [10], the “EC50 (read off the curve)” value is approximately 0.03 nM. For the same molecule, in [11], the “IC50 of inhibition of NIH/3T3 proliferation stimulated by scPDGF, alamarBlue” value was determined as 8.7 nM and the “IC50 of inhibition of stimulation by 100 pM scPDGF, PathHunter reporter cells” value was 130 pM.
